Experimental data reported in publication PMC4417153 (Nucleic Acids Research, 2015).
“And” between values parts separate entries of the source, which are not always exact repeats. Equal entries are not always repeated.

B1: Twinkle (human mitochondrial replicative helicase), mature, aa 43-684, produced in E. coli (enzyme, UniProt Q96RR1 43-684, looked up)
chain: ETLQALDMPVLPVTATEIRQYLRGHGIPFQDGHSCLRALSPFAESSQLKGQTGVTTSFSLFIDKTTGHFLCMTSLAEGSWEDFQASVEGRGDGAREGFLLSKAPEFEDSEEVRRIWNRAIPLWELPDQEEVQLADTMFGLTKVTDDTLKRFSVRYLRPARSLVFPWFSPGGSGLRGLKLLEAKCQGDGVSYEETTIPRPSAYHNLFGLPLISRRDAEVVLTSRELDSLALNQSTGLPTLTLPRGTTCLPPALLPYLEQFRRIVFWLGDDLRSWEAAKLFARKLNPKRCFLVRPGDQQPRPLEALNGGFNLSRILRTALPAWHKSIVSFRQLREEVLGELSNVEQAAGLRWSRFPDLNRILKGHRKGELTVFTGPTGSGKTTFISEYALDLCSQGVNTLWGSFEISNVRLARVMLTQFAEGRLEDQLDKYDHWADRFEDLPLYFMTFHGQQSIRTVIDTMQHAVYVYDICHVIIDNLQFMMGHEQLSTDRIAAQDYIIGVFRKFATDNNCHVTLVIHPRKEDDDKELQTASIFGSAKASQEADNVLILQDRKLVTGPGKRYLQVSKNRFDGDVGVFPLEFNKNSLTFSIPPKNKARLKKIKDDTGPVAKKPSSGKKGATTQNSEICSGQAPTPDQPDTSKRSK
B2: Twinkle (human mitochondrial replicative helicase), aa 30-684, produced in SF9 insect cells (enzyme, UniProt Q96RR1 30-684, looked up)
chain: NLAPGPPRRRYRKETLQALDMPVLPVTATEIRQYLRGHGIPFQDGHSCLRALSPFAESSQLKGQTGVTTSFSLFIDKTTGHFLCMTSLAEGSWEDFQASVEGRGDGAREGFLLSKAPEFEDSEEVRRIWNRAIPLWELPDQEEVQLADTMFGLTKVTDDTLKRFSVRYLRPARSLVFPWFSPGGSGLRGLKLLEAKCQGDGVSYEETTIPRPSAYHNLFGLPLISRRDAEVVLTSRELDSLALNQSTGLPTLTLPRGTTCLPPALLPYLEQFRRIVFWLGDDLRSWEAAKLFARKLNPKRCFLVRPGDQQPRPLEALNGGFNLSRILRTALPAWHKSIVSFRQLREEVLGELSNVEQAAGLRWSRFPDLNRILKGHRKGELTVFTGPTGSGKTTFISEYALDLCSQGVNTLWGSFEISNVRLARVMLTQFAEGRLEDQLDKYDHWADRFEDLPLYFMTFHGQQSIRTVIDTMQHAVYVYDICHVIIDNLQFMMGHEQLSTDRIAAQDYIIGVFRKFATDNNCHVTLVIHPRKEDDDKELQTASIFGSAKASQEADNVLILQDRKLVTGPGKRYLQVSKNRFDGDVGVFPLEFNKNSLTFSIPPKNKARLKKIKDDTGPVAKKPSSGKKGATTQNSEICSGQAPTPDQPDTSKRSK

Key:
[1] = molecular target: the molecule itself; assay: SAXS
[2] = molecular target: the molecule itself; assay: negative staining EM

| Protein | stoichiometry N [1] | stoichiometry N [2] |
| --- | --- | --- |
| B1 | 7 | 6 |
| B2 | – | 6 and 7 |
